Results on 5 substances are retold here after patent US20230135471A1, “UBIQUITIN VARIANTS WITH IMPROVED AFFINITY FOR 53BP1” (Integrated DNA Technologies, Inc., priority 2021, published 2023).

The target in assay [1] is 53BP1 (amino acids 1484-1603) fused to MBP (Homo sapiens, UniProt Q12888). Description: Biolayer interferometry (BLI) of purified His-tagged Ubvs, 1:1 binding model global fit. The settings on record: for Response: second experiment, longer association (360 seconds; i53 90 seconds). Here is the method:
In order to assess the effect of mutations identified from the two-hybrid screen on the affinity of the Ubvs for 53BP1, Ubvs consisting of the i53 sequence with an N-terminal His tag and short flexible linker plus individual or combinations of screen-identified mutations were purified from E. coli (Table 3). Biolayer interferometry was used to measure the affinity of the purified proteins. Briefly, a purified Ubv was diluted in reaction buffer (1×PBS pH7.4, 0.1 mg/mL BSA, 0.001% Tween 20) to 2 ug/mL. Purified 53BP1 (amino acids 1484-1603) fused to MBP was diluted in reaction buffer to between 20 μM and 10 nM (Table 3, Table 4)). For each Ubv, 8 Ni-NTA sensor tips were hydrated and then loaded with the 2 ug/ml of a Ubv for 30 seconds. Sensor tips were then incubated in reaction buffer for 45 seconds to obtain a baseline. Tips were then moved into either empty buffer or seven different concentrations of purified 53BP1 and the association was measured. Tips were then moved back into reaction buffer and the dissociation was measured. Kon, Koff, and Kd were calculated using a 1:1 binding model using a global fit (Table 4).
A second experiment was performed using CM1 and CM7 using a longer association time (360 seconds) to allow binding to closer approach equilibrium. The BLI response vs 53BP1 fragment concentration was plotted in prism to calculate the Kd using a one site-specific binding nonlinear fit model. An i53 response was plotted on the same graph however the association time used (90 seconds) was shorter due to needing a shorter time to reach equilibrium because of the fast off rate of i53 (FIG. 5B, FIG. 5C, Table 4).
Background: Biolayer interferometry detects binding as a change in optical thickness at a sensor tip.

Assay [2] relates to HDR at HPRT1 in HEK293 cells that constitutively express HiFi Cas9 / Jurkat cells. Description: HDR at HPRT1 by EcoR1 cleavage assay, Ubv delivered as expression plasmid. Type of assay: cell-based. The settings on record: 154 ng plasmid encoding His-tagged Ubv, versus LbCas12a crRNA plasmid negative control. Here is the method: Error bars indicate the standard deviation from two replicates.
In order to test if CM1 is effective at increasing HDR rates when delivered in other forms, plasmid or mRNA encoding CM1 was introduced into cells and the effects on HDR rates were analyzed. […] After 72 hours, genomic DNA was extracted using QuickExtract (Lucigen) and editing was analyzed by PCR amplification of the HPRT1 target site followed by EcoR1 restriction enzyme digestion. Digested product was run on a Fragment Analyzer (AATI).

Assay [3] has as its system HDR at a Cas9 cut site in MET in HEK293 cells. Put plainly: HDR (6 nt insert) at MET measured by EcoR1 cleavage. Type of assay: cell-based. The following applies: Alt-R HDR donor oligo (small insert), CM1 […], IDT-E 1 μM for 24 hours. From the text:
(§1) We tested if our ubiquitin variants provided a further benefit over inhibition of common NHEJ pathway targets alone by using the DNA-PK inhibitor IDT enhancer (IDT-E) in combination with CM1 in the context of both large and small inserts (Table 7). […] Without limiting the claimed subject matter to a particular mode or mechanism of action, we hypothesize that our ubiquitin variants targeting 53BP1 will be a useful in facilitating increased HIDR when used in combination with other inhibitors of NHEJ pathway components.

In assay [4] the test system is HDR at a Cas9 cut site in CLTA in K562 cells. Put plainly: HDR insertion of 729 bp GFP coding sequence at CLTA, measured by ONT sequencing. The format is cell-based. The settings on record: dsDNA donor (large insert), Ubv 37.5 μM, IDT-E 1 μM for 24 hours. On the procedure: FIG. 12A illustrates use of a ubiquitin variant with high affinity for 53BP1 provides an additional benefit to HDR over the use of a DNA-PK inhibitor alone. […] Ubiquitin variants were delivered alongside 2 μM Cas9 RNP at 37.5 μM final concentration. IDT-E was added to media post nucleofection for 24 hours at 1 μM final dose. Double stranded DNA donor with 200 bp homology arms was delivered at 1.5 μg per nucleofection.
as §1

The subject of assay [5] is HDR at HPRT1 in HEK293 cells. Put plainly: HDR at HPRT1 by EcoR1 cleavage assay, tag-free versus His-tagged CM1 protein. Type of assay: cell-based. The following applies: HEK293, HPRT1, 50 μM to […] ubiquitin variant. On the procedure:
Data is shown for two biological replicates with lines connecting the means. The dashed line indicates the level of EcoR1 cleavage when no enhancer is used (n=3, standard deviation <2%).
A tag-free version of CM1 (CM1tf, SEQ ID NO:482) was compared with the His6-tagged version of CM1 (SEQ ID NO:241) for their ability to enhance HDR in HEK293 cells as has been described in previous examples. Briefly, 2 uM Cas9 RNP targeting a site in HPRT1 and 2 uM ssDNA donor containing 40 bp homology arms flanking a 6 bp EcoR1 cut site insert sequence were delivered into HEK293 cells with varying amounts of CM1tf (CM1tf, SEQ ID NO:482) or His-tagged CM1 (CM1; SEQ ID NO:241) using Lonza nucleofection. Genomic DNA was isolated after 48 hours, and editing was measured using an EcoR1 cleavage assay.

Assay [6] deals with 53BP1 foci. The settings on record: introduced into cells; cited from earlier work.
Assay [7] deals with T1, fragment of 53BP1 (a.a. 1221-1718) (Homo sapiens, UniProt Q12888).
T1 construct: a fragment of 53BP1 (a.a. 1221-1718); expressed in transfected cells; host or cells: E. coli DHM1
Description: Individual two-hybrid screen of amino acid changes, percent GFP (reporter) positive cells by flow cytometry. The format is cell-based. An excerpt: (§2) In order to identify mutations that improve the affinity of i53 for 53BP1, the bacterial adenylate cyclase two-hybrid system (BACTH system) was used to screen for interaction between the two proteins. This method makes use of a B. pertussis calmodulin-dependent adenylate cyclase toxin. The catalytic domain of the toxin can be separated into two fragments (T18 and T25) that are able to associate in the presence of calmodulin but have minimal activity in its absence. If bait and prey proteins fused to T18 and T25 interact, then the catalytic activity is restored and cAMP is produced. In E. coli, cAMP binds to catabolite activator protein (CAP) that acts as a transcriptional activator for several genes. By expressing these fusion proteins in an E. coli strain that lacks endogenous adenylate cyclase and naturally lacks calmodulin, cAMP regulated protein expression can be used as a readout of bait-prey interaction. We engineered the screen so that eGFP will be expressed under the control of a cAMP-regulated promoter. The coding sequence for a fragment of 53BP1 (a.a. 1221-1718) containing the i53 interacting regions and i53 were cloned into T18 and T25 adenylate cyclase expression plasmids such that fusion proteins of each would be expressed. If a Ubv interacts with 53BP1, the T18 and T25 fragments will be brought together, adenylate cyclase activity will be restored, cAMP will be produced, and some portion of the bacterial population will be GFP positive.
(§3) There was a high degree of correlation between the two experiments and between replicates (FIG. 2). From these screens, about 230 amino acid changes were identified for which the average enrichment was positive for at least one of the experiments (Table 1). […] To validate that the amino acid changes identified from the pooled screen are reproducible on an individual basis, 24 amino acid changes identified from this screen were introduced individually into the i53 fusion protein plasmid and tested by flow cytometry for their effect on the percent positive population relative to i53 (FIG. 3). There was a strong correlation between the enrichment measured from the pooled screen and the percent reporter positive cells when mutations were screened individually.

For assay [8], the target named is T1, fragment of 53BP1 (a.a. 1221-1718). Put plainly: BACTH two-hybrid pooled screen in E. coli, FACS sorting of GFP positive cells and NGS enrichment of i53 amino acid changes. The format is cell-based.
From the text: as §2
A plasmid library was made consisting of Ubv-adenylate cyclase fragment fusion protein plasmids that had on average a single codon within the i53 coding region exchanged for a random NNK codon. Plasmids were transformed into DHM1 cells that lack endogenous adenylate cyclase and contain the plasmid for expression of the 53BP1 fragment fused to one of the adenylate cyclase fragments. Expression of eGFP was used as a readout of bait-prey interaction using fluorescence activated cell sorting (FACS) to sort for GFP positive bacteria. Plasmid DNA was isolated from both the sorted GFP positive bacteria (Positive) and from the original pre-sort population (Input) and was sequenced using NGS. Counts were merged for mutations that result in the same amino acid change using Enrich2 [25]. Enrichment was calculated as enrichment=log 2((read count for an amino acid change in the positive population/read count for an amino acid change in the input)/(synonymous change read count in the positive population/synonymous change read count in the input)). […] For each experiment, DHM1 cells were transformed with the Ubv fusion protein plasmid library in two separate replicates using a gene pulser (Bio-Rad). The i53-adenylate cyclase fragment fusion protein (published i53 peptide, SEQ ID NO:2) plasmid was also introduced separately as a control to estimate selection pressure. Cells were then grown and sorted using FACS and GFP positive cells were collected. Two separate experiments were conducted on separate days using different levels of selection pressure resulting in a different percent GFP positive for the i53 population (i.e. for cells that express published i53 peptide (SEQ ID NO:2) fused to one of the adenylate cyclase fragments).
as §3

For assay [9], the system named is HDR. The following applies: plasmid delivery, adeno-associated virus mediated gene delivery, or delivery of mRNA; cited from earlier work.

T1 sequence (Q12888 1221-1718): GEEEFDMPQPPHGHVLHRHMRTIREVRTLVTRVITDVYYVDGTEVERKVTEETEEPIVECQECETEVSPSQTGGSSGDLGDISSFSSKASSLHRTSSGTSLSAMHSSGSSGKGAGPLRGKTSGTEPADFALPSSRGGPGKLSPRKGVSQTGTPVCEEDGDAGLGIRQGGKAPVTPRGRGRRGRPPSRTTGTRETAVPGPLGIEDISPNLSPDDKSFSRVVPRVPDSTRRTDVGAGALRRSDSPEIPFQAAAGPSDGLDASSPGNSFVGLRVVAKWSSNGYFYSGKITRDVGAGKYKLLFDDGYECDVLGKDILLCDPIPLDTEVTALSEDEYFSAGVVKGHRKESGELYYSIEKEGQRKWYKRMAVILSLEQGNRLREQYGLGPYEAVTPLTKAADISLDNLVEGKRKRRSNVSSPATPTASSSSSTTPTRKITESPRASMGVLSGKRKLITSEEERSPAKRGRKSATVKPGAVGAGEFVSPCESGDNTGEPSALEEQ
Sequence of 53BP1 (amino acids 1484-1603) fused to MBP (Q12888 1484-1603, looked up): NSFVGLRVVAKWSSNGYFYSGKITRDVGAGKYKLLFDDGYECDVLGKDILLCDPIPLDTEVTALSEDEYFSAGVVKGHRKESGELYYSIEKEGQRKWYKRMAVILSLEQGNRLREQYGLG

As for “CM1: i53 with K6R, T7M, T12M, T14E, K33H, A46Q, S65P, L67K, H68M; N-terminal His tag”, the Response in [1] (53BP1 0.0102 μM) turned out to be 0.4913; in assay [1] (53BP1 0.0511 μM), 1.3298; in assay [1] (53BP1 0.1022 μM) it was 1.6825; in assay [1] (53BP1 0.2045 μM), 2.0092; in [1] (53BP1 1.02 μM), 2.5002; in assay [1] (53BP1 5.11 μM), 2.738. Also, the Response in assay [1] (53BP1 20.5 μM) came out at 2.9739. Also, the HDR rate entry in assay [2] was “larger increase in HDR rate”. Besides, the “rate of HDR” value in assay [3] and in assay [4] was “increase rates of HDR” in each case.

As for CM1tf: tag-free version of CM1, the “ability to enhance HDR” value in assay [5] is on record as “equivalent to that of His-tagged CM1”.

As for “CM7: i53 with K6R, K33H, A46Q, S65P; N-terminal His tag”, the Response in [1] (53BP1 0.0102 μM) stood at 0.099; in assay [1] (53BP1 0.0511 μM), 0.3578; in [1] (53BP1 0.1022 μM) it was 0.5715; in [1] (53BP1 0.2045 μM), 0.8611; in assay [1] (53BP1 1.02 μM) it was 1.5108; in [1] (53BP1 5.11 μM), 2.0067. For the same substance, the Response in assay [1] (53BP1 20.5 μM) came out at 2.4923.

Consider “i53 DM: 53BP1 binding deficient i53 variant with P69L, L70V [reference compound]”, for which the “KD (M)” value in assay [1] (1:1 binding model, global fit over all 53BP1 concentrations) was “Response was too low to get a good fit to the data”.

For the substance “i53: published ubiquitin variant inhibitor of 53BP1 (Canny et al.); tested with N-terminal His tag and linker (SEQ ID NO:3) [reference compound]”, the “formation of ionizing radiation induced 53BP1 foci” value in [6] is listed as “inhibited the formation ionizing radiation induced 53BP1 foci”. In [7] (replicate 1, amino acid change in i53 fusion protein plasmid), the “Percent GFP Positive Rep 1” value is listed as 9%. The “Percent GFP Positive Rep 2” value in [7] (replicate 2) is 7.6%. The “Percent GFP Positive Rep 3” value in assay [7] (replicate 3) stood at 11.8%. Further, the Response was 0.0176 in assay [1] (53BP1 0.0102 μM); 0.0537 in assay [1] (53BP1 0.0511 μM); 0.104 in assay [1] (53BP1 0.1022 μM); 0.1877 in assay [1] (53BP1 0.2045 μM); 0.6247 in [1] (53BP1 1.02 μM); 1.2658 in assay [1] (53BP1 5.11 μM). In addition, the Response in assay [1] (53BP1 20.5 μM) was determined as 1.954. Besides, in assay [2], the HDR rate result is listed as “increase in HDR rates”. In addition, the i53 percent positive entry in assay [8] (experiment one) was “approximately 30%”. Moreover, the GFP positive population is reported as about 3% in [8] (high selection pressure experiment) and about 17% in assay [8] (low selection pressure experiment). For the same substance, the “rates of HDR” value in assay [9] is “improve the rates of HDR”.
